Measured values from paper PMC6331215 (Journal of molecular biology, 2018).

B1: M. marinum EspG1 (natural protein)
chain: MTGPLATGRAGTGDDVVGVEVTIDGMLVIADRLHLVDFPVTLGIRPNIPQEDLREIVWDQVARDLTAQGVLDHNGQPHPAVAAMVDTLSRADRTLEGRWWRRDVGGVMVRFVVCRKGERHVIAVRDGDMLVLQLVAPRVGLAGMVTAVLGTAEPANVEPLTGIASELGECTNAAQLTRYGLTPTTARLYTEIVTNPKSWVEIVASERHPGGTTTHTKAAAGVLDSAHGRLVSLPRQVGGELYGSFLPGTEQNLQRALDSLLELLPSGSWLDRADATARG

Assays:
[1] = target: M. marinum EspG3 (construct for SAXS) (M. marinum E11) (UniProt B2HNX0); assay: SAXS
SAXS = target: the molecule itself; assay: SAXS

| Molecule | dimeric fraction at 4.0 mg/ml (wing-shaped dimer model, 4L4W) [1] | dimeric fraction at 6.0 mg/ml (wing-shaped dimer model, 4L4W) [1] | stoichiometry N (SAXS) |
| --- | --- | --- | --- |
| M. marinum EspG3 (construct for SAXS) (from UniProt B2HNX0 1-298) (natural protein) | 1 | 1 | – |
| B1 | – | – | 2 |
